T1: MeV IC323 F (pre-fusion, on transfected HEK293T cells) (Measles virus strain IC323, UniProt Q786F3 24-550)
T1 construct: whole, on cells; also called pCAGGS-MeV IC323 F; MeV F
T1 sequence: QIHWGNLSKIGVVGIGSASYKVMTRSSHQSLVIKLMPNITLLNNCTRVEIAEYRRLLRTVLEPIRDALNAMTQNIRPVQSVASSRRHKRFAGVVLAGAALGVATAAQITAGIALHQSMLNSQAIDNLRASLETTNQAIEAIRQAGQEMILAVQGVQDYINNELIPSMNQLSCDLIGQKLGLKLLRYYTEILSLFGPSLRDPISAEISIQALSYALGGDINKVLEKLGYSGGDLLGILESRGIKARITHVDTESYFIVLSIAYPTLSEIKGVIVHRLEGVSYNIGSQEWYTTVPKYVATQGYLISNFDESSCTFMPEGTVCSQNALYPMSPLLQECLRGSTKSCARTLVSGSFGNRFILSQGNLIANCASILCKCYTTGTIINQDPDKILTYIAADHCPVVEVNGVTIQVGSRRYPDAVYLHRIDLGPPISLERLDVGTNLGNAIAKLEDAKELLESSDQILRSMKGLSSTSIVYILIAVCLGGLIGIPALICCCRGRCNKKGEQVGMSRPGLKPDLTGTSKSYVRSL


Experiments:
[1] = molecular target: T1, MeV IC323 F (pre-fusion, on transfected …); assay: immunofluorescence of transfected HEK293T cells, Alexa 488 anti 6-histidine antibody
[2] = tested on: MeV WTFb; assay: In vivo prophylaxis against MeV infection in cotton rats (scFv, intranasal); parameters: species or system cotton rats (Sigmodon hispidus)
Method: To assess anti-MeV prophylaxis by the scFv in vivo, we used cotton rats (CR) as an infection model. The scFv antibody construct was administrated via intranasal delivery 24 and 12 h before infection. Four days after infection, the animals were euthanized, and the viral titers in the animals' lungs were quantified.
Cotton rats were infected intranasally with 10^5 TCID50/ml of MeV WTFb. Animals received either the indicated amount of mAb 77.4-derived scFv construct (n=4) or vehicle (n=8) 24 h and 12 h prior to infection. Animals were euthanized 5 days after infection. Lungs were collected and homogenized for TCID50 titration. Results are presented as TCID50/g of lung. Statistical analyses were performed using the Mann-Whitney U-test.
In vivo experiments: Cotton rats. Inbred cotton rats (Sigmodon hispidus) were purchased from Envigo, Inc., Indianapolis. Both male and female cotton rats aged 5 to 7 weeks were used. For infection, 10^5 TCID50 of MeV (strain WTFb) was inoculated intranasally to isofluorane-anesthetised cotton rats in a volume of 100 μl. Treatment was performed in the same way at the indicated time points. Four days after infection, the animals were euthanized using CO2 inhalation, and their lungs were collected and weighed. Lung tissue was minced with scissors and homogenized with a glass dounce homogenizer. Vero-SLAM cells were inoculated with serial 10-fold dilutions of supernatant fluids to assess the presence of infectious virus in 48-well plates using cytopathic effect (CPE) as an endpoint. Plates were scored for CPE microscopically after 7 days, and the TCID50 was calculated as described previously^43.

[3] = molecular target: human parainfluenza virus 3 fusion protein (HPIV3 F) (Human parainfluenza 3 virus, UniProt P06828); conditions: HEK293T, 24 h post-transfection
Method: (§1) To assess the specificity of the scFV derived from mAb 77.4 for MeV F, cells expressing either MeV IC323 F or the human parainfluenza virus 3 fusion protein (HPIV3 F) were incubated with the scFv and subjected to immunofluorescence using a fluorescently-labeled Alexa 488 anti 6-histidine antibody (FIG. 3E-F). […] Finally, we assessed whether the scFv blocked cell-cell fusion mediated by either MeV IC323 or G954 H/F fusion complexes (FIG. 3G). For this experiment we used a beta-galactosidase (β-Gal) complementation assay^18 that measures the fusion of cells that express viral envelope glycoproteins (MeV IC323 or G954 H/F) with cells that express the MeV receptor SLAM (FIG. 3G). HEK293T (“target cells”) were transiently transfected with SLAM and the omega reporter subunit of beta-galactosidase, and incubated for the indicated time period in the presence of different concentrations of inhibitors with “effector cells” co-expressing MeV G954 or IC323 H and F together with the alpha reporter subunit of beta-galactosidase. Fusion between the target and effector cells leads to reconstitution of beta-galactosidase activity, which we quantified using the luminescence-based Galacto-Star™ β-Galactosidase Reporter Gene kit (ThermoFisher, US).
(§2) (A) Sequence of the single-chain variable fragment antibody derived from anti-MeV F mAb 77.4. […] Images were obtained using epifluorescent microscopy 48 h post-infection (scale bar=200 μm). (C) HEK293T cells were transfected with either pCAGGS-HPIV3 F or MeV IC323 F and stained using scFv 24 h post-transfection (scale bar=200 μm). (D) Fusion of MeV G954 or IC323 H/F co-expressing cells with SLAM-bearing cells in the presence of scFv at indicated concentrations was quantified at 6 h using a β-galactosidase complementation assay.

[4] = molecular target: MeV IC323 H/F fusion complex (Measles virus, UniProt Q786F3); conditions: SLAM-bearing HEK293T target cells, 6 h
Method: as §1, §2

[5] = molecular target: MeV G954 H/F fusion complex (Measles virus, UniProt Q786F3, H419R/Q139R/R70K); conditions: SLAM-bearing HEK293T target cells, 6 h
Method: as §1, §2

[6] = tested on: MeV IC323-EGFP; assay: Viral spread / plaque enlargement assay in Vero-SLAM cells; assay type: cell-based, measles virus (MeV)
Method: In an effort to identify a more broadly reactive mAb, the neutralizing activity of two other previously identified mAbs, mAb 77.4 and mAb Y503, was assessed in the experiments shown in FIG. 1 I-K. Vero cells expressing the measles receptor SLAM (Vero-SLAM) were infected with MeV IC323-EGFP virus (the expression of fluorescent protein permits tracking of the spread of infection). Six hours post-infection, the cells were treated with serial dilutions of mAbs 77.4 or Y503.
(H-K) VeroSLAM cells were infected with MeV IC323-EGFP at a multiplicity of infection (MOI)=0.001. […] (K) MeV infection in Vero-SLAM cells either untreated (NT) or treated at the indicated dilution of supernatant fluids from hybridomas producing anti F-mAb 77.4 or mAb Y503 were quantified using fluorescent spectroscopy. Data are expressed as relative fluorescence units (RFUs).
The scFv was expressed in eukaryotic cells and purified by affinity purification using a 6×-hisitidine tag (see Materials and Methods). Vero-SLAM cells were infected with MeV IC323-EGFP virus and six hours post-infection, the cells were treated with serial dilutions of the scFv (62.5 μg/ml and 1.95 μg/ml are shown in 3C and CD) and immunofluorescent syncytium formation was measured to quantify viral spread 48 hours post-infection.
Plaque enlargement assay. […] Quantification was determined using fluorescent spectroscopy.

Molecule	binding result [1]	lung infection ([2]; 0.5 mg/ml intranasal 24 and 12 h before infection)	lung infection ([2]; 1 mg/ml intranasal 24 and 12 h before infection)	viral titers in the lungs compared with untreated controls ([2]; intranasal 24 and 12 h before infection, doses 0.25, 0.5 and 1 mg/ml)	recognition of cells expressing HPIV3 F by scFv [3]	inhibition of cell fusion mediated by IC323 H/F [4]	inhibition of cell fusion mediated by G954 H/F [5]	inhibition of viral infection (syncytium formation) ([6]; Vero-SLAM, serial dilutions of scFv, 48 hours post-infection)	in vitro potency compared with the full antibody (mAb 77.4) ([6]; general statement, assay not specified)
single-chain variable fragment (scFv) derived from anti-MeV F mAb 77.4 (scFv, also called mAb 77.4-derived scFv) scFv: MDVQLQESGPGLVKPSQSLSLTCTVSGYSITSDYAWNWIRQFPGNKLEWMGYISYTLTTGYNPSLKSRISITRDSSKNQFFLQLNSVTTEDTATYYCARSGWLLPYWYFDVWGAGTTVTVSSGGGGSGGGSGGGGSDVQITQSPSYLAASPGETITINCRASKSISKYLAWYQEKPGKTNELLIYSGSTLQSGIPSRFRGSGSGTDFTLTISSLEPEDFAMYYCQQHNEYTLTFGGGTKLELKRHHHHHH	binds	–	–	–	–	–	–	–	–
scFv: single-chain fragment made by fusing VH and VL of mAb 77.4 via G4S linker, 6x-histidine tag; SEQ ID NO:3 (protein, 6x His tag; single-chain variable fragment antibody) scFv: MDVQLQESGPGLVKPSQSLSLTCTVSGYSITSDYAWNWIRQFPGNKLEWMGYISYTLTTGYNPSLKSRISITRDSSKNQFFLQLNSVTTEDTATYYCARSGWLLPYWYFDVWGAGTTVTVSSGGGGSGGGSGGGGSDVQITQSPSYLAASPGETITINCRASKSISKYLAWYQEKPGKTNELLIYSGSTLQSGIPSRFRGSGSGTDFTLTISSLEPEDFAMYYCQQHNEYTLTFGGGTKLELKRHHHHHH	–	completely inhibited lung infection	completely inhibited lung infection	significantly reduced viral titers in the lungs	not those expressing HPIV3 F	inhibited cell fusion	inhibited cell fusion	clearly inhibited viral infection	less than that of the full antibody

Reference: patent US20240150443A1, “[…] MEASLES VIRUS” (The Trustees of Columbia University in the City of New York, priority 2021, published 2024)
